PMC10501626 (PLOS Pathogens, 2023)

Target: T1, LGP2 regulatory domain (LGP2 RD, residues 537–678), wild type (human, UniProt Q96C10 537-678, biotinylated (biotin added at 3:1 molar ratio) for biolayer interferometry)
T1 construct: also called LGP2 RD WT; WT
T1 sequence (looked up): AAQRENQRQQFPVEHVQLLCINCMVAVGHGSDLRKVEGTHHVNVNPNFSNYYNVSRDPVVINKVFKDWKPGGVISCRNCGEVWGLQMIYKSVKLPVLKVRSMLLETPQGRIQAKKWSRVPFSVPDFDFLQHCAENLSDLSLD
Test: BLI
Conditions: both partners purified

B1: TBEV NS5 protein, purified (natural protein)
chain: GGSEGDTLGDLWKRKLNGCTKEEFFAYRRTGILETERDKARELLKRGETNMGLAVSRGTAKLAWLEERGYATLKGEVVDLGCGRGGWSYYAASRPAVMSVKACAIAGKGHETPKMVTSLGWNLIKFRAGMDVFSMQPHRADTIMCDIGESNPDAVVEGERTRKVILLMEQWKNRNPTATCVFKALAPYRPEVTEALHRFQLQWGGGLVRTPFSRNSTHEMYYSTAITGNIVNSVNIQSRKLLARFGDQRGPTRVPELDLGVGTRCVVLAEDKVKEKDVQERISALREQYGETWHMDREHPYRTWQYWAATACANRVGGALINGVVKLLSWPWNAREDVVRMAMTDTTAFGQQRVFKEKVDTKAQEPQPGTKVIMRAVNDWILERLARKSKPRMCSREEFIAKVKSNAALGAWSDEQNRWSSAKEAVEDPAFWQLVDEERERHLAGRCAHCVYNMMGKREKKLGEFGVAKGSRAIWYMWLGSRFLEFEALGFLNEDHWASRGSSGSGVEGISLNYLGWHLKGLSTLEGGLFYADDTAGWDTKVTNADLEDEEQLLRYMEGEHKQLAATIMQKAYHAKVVKVARPSRDGGCIMDVITRRDQRGSGQVVTYALNTLTNIKVQLIRMMEGEGVIEASDAHNPRLLRVERWLRDHGEERLGRMLVSGDDCVVRPVDDRFSGALYFLNDMAKTRKDIGEWDHSVGFSNWEEVPFCSHHFHELVMKDGRTLIVPCRDQDELVGRARVSPGCGRSVRETACLSKAYGQMWLLSYFHRRDLRTLGLAICSAVPVDWVPAGRTTWSIHASGAWMTTEDMLDVWNRVWILDNPFMHSKEKIAEWRDVPYLPKSHDMLCSSLVGRKERAEWAKNIWGAVEKVRKMIGQEKFKDYLSCMDRHDLHWESKLESSII
In the case of B1, the Kd is reported as 1200 ± 800 nM.
